Patent publication US20180155413A1 (AstraZeneca / MedImmune, published 2018)
Like-named read-outs stand apart in the source and are kept apart here.

Tests used:
Test in all cases: cell-based or functional assay
[1] = target: HA of B/Wisconsin/5/2013 (victoria) (influenza B virus)
[2] = target: HA of B/Nevada/3/2011 (victoria) (influenza B virus)
[3] = target: HA of B/Florida/4/2006 (yamagata) (influenza B virus)
[4] = target: HA of B/Wisconsin/1/2010 (yamagata) (influenza B virus)
[5] = target: HA of ca B/Ann Arbor/1/66 (influenza B virus)
[6] = target: HA of ca B/Georgia/02/98 (yamagata) (influenza B virus)
[7] = target: HA of B/Sichuan/379/99 (yamagata) (influenza B virus)
[8] = target: HA of B/Hong Kong/330/2001 (victoria) (influenza B virus)
[9] = target: HA of ca B/Brisbane/60/2008 (victoria) (influenza B virus)
[10] = target: HA of B/New Jersey/01/2012 (victoria) (influenza B virus)
HA of B/Hong Kong/5/72 [11] = target: HA of B/Hong Kong/5/72 (influenza B virus)
[12] = target: HA of B/Yamagata/16/88 (yamagata) (influenza B virus)
[13] = target: HA of B/Ohio/1/2005 (victoria) (influenza B virus)
HA of B/Lee/40 [14] = target: T1, HA of B/Lee/40 (influenza B virus, UniProt P03460 16-584)
T1 sequence (P03460 16-584 limits assumed): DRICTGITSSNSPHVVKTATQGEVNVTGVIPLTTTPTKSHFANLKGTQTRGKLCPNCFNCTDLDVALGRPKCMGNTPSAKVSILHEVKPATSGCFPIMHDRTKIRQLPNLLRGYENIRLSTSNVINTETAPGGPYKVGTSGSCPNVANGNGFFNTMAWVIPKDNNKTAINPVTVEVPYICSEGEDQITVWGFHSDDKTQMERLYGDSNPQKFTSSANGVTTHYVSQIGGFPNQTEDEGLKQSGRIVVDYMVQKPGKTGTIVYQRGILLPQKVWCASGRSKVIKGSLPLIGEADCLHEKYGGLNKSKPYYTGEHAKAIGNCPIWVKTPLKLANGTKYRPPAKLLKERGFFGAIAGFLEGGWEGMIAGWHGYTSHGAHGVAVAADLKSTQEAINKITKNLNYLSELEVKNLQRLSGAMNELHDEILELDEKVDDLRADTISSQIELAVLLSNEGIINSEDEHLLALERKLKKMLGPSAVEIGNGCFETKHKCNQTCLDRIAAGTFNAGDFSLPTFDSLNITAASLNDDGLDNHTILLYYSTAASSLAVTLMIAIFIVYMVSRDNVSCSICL

[15] = target: HA of ca B/Beijing/243/97 (victoria) (influenza B virus)
[16] = target: HA of B/Texas/2/2013 (victoria) (influenza B virus)
[17] = target: HA of B/Arizona/8/2013 (yamagata) (influenza B virus)
[18] = target: HA of B/Malaysia/2506/2004 (victoria) (influenza B virus)
[19] = target: HA of B/Phuket/3073/2013 (yamagata) (influenza B virus)
[20] = target: HA of ca B/Victoria/504/2000 (yamagata) (influenza B virus)
[21] = target: HA of B/Sichuan/379/99 (yamagata) (influenza B virus); remark: listed apart in the source
[22] = target: HA of B/Malaysia/2506/2004 (victoria) (influenza B virus); remark: listed apart in the source
[23] = target: HA of B/Yamanashi/166/98 (yamagata) (influenza B virus)
[24] = target: HA of B/Florida/4/2006 (yamagata) (influenza B virus); remark: listed apart in the source
[25] = target: HA of B/Shanghai/361/02 (yamagata) (influenza B virus)
[26] = target: HA of ca B/Ann Arbor/1/66 (influenza B virus); remark: listed apart in the source
[27] = target: HA of ca B/Georgia/02/98 (yamagata) (influenza B virus); remark: listed apart in the source
[28] = target: HA of B/Sichuan/379/99 (yamagata) (influenza B virus); remark: listed apart in the source
[29] = target: HA of B/Hong Kong/330/2001 (victoria) (influenza B virus); remark: listed apart in the source
[30] = target: HA of ca B/Brisbane/60/2008 (victoria) (influenza B virus); remark: listed apart in the source
HA of B/Hong Kong/5/72 [31] = target: HA of B/Hong Kong/5/72 (influenza B virus); remark: listed apart in the source
[32] = target: HA of B/Yamagata/16/88 (yamagata) (influenza B virus); remark: listed apart in the source
[33] = target: HA of ca B/Johannesburg/5/99 (yamagata) (influenza B virus)
[34] = target: HA of B/Ohio/1/2005 (victoria) (influenza B virus); remark: listed apart in the source
HA of B/Lee/40 [35] = target: T1, HA of B/Lee/40; remark: listed apart in the source
[36] = target: HA of ca B/Beijing/243/97 (victoria) (influenza B virus); remark: listed apart in the source
[37] = target: HA of ca B/Ann Arbor/2/94 (yamagata) (influenza B virus)
[38] = target: HA of B/Malaysia/2506/2004 (victoria) (influenza B virus); remark: listed apart in the source
[39] = target: HA of ca B/Victoria/504/2000 (yamagata) (influenza B virus); remark: listed apart in the source
[40] = target: HA of ca A/Panama/2007/99 (H3N2) (influenza A virus)
[41] = target: HA of B/Florida/4/2006 (yamagata) (influenza B virus); remark: listed apart in the source
[42] = target: HA of A/Beijing/262/95 (H1N1) (influenza A virus)
[43] = target: HA of A/Victoria/3/75 (H3N2) (influenza A virus)
[44] = target: HA of B/Sichuan/379/99 (yamagata) (influenza B virus); remark: listed apart in the source
[45] = target: HA of B/Hong Kong/330/2001 (victoria) (influenza B virus); remark: listed apart in the source
[46] = target: HA of A/Hong Kong/8/68 (H3N2) (influenza A virus)
[47] = target: HA of A/California/07/2009 (H1N1) (influenza A virus)
[48] = target: HA of A/Shan dong/9/93 (H3N2) (influenza A virus)
[49] = target: HA of B/Ohio/1/2005 (victoria) (influenza B virus); remark: listed apart in the source
[50] = target: HA of ca B/Beijing/243/97 (victoria) (influenza B virus); remark: listed apart in the source
[51] = target: HA of A/Wilson Smith N/33 (H1N1) (influenza A virus, UniProt P03454 18-565)
HA of A/Wilson Smith N/33 (H1N1), sequence (P03454 18-565 limits assumed): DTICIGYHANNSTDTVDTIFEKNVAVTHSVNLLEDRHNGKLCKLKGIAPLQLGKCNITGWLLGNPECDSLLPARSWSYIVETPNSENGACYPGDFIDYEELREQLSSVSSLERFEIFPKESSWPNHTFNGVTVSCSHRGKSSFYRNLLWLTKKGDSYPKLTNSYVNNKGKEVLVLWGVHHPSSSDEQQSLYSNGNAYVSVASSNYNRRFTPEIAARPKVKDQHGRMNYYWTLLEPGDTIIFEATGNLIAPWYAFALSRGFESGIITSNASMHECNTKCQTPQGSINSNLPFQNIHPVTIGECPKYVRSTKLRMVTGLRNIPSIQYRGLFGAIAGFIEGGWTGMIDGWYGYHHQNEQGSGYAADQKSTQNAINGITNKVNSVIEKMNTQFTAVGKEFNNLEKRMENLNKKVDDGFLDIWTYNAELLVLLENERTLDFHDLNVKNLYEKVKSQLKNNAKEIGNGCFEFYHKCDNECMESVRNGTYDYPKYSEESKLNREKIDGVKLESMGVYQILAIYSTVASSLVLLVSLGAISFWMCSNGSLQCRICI

[52] = target: HA of B/Malaysia/2506/2004 (victoria) (influenza B virus); remark: listed apart in the source
[53] = target: HA of B/Yamanashi/166/98 (yamagata) (influenza B virus); remark: listed apart in the source
[54] = target: HA of A/Solomon Island/3/2006 (H1N1) (influenza A virus)

B1: FBC39 IgG (antibody, V domains shown)
VH: EVQLVVSGGGLVKPGGSLRLSCAASGLSFLNAWMSWVRQAPGKGLEWVGRIKSNTDGGTTDYAAPVKGRFSISRDDSKNMLFLHMSSLRTEDTAVYYCATDGPYSDDFRSGYAARYRYFGMDVWGQGTTVTVSS
VL: DIQMTQSPSSVSASVGDRVTITCRASQDISTWLAWYQQKPGKAPKLLIYAASSLQSGVPSRFSGSGSGTDFTLTISSLQPEDFATYFCQQANSFPPTFGQGTKLEIK
- Neutralization (IC50) [1]: 0.5 nM
- Neutralization (IC50) [2]: 1.2 nM
- Neutralization (IC50) [3]: 0.2 nM
- Neutralization (IC50) [4]: 0.1 nM
- Neutralization (IC50) [5]: 0.6 nM
- Neutralization (IC50) [6]: 0.1 nM
- Neutralization (IC50) [7]: 0.3 nM
- Neutralization (IC50) [8]: 1.8 nM
- Neutralization (IC50) [9]: 1.5 nM
- Neutralization (IC50) [10]: 0.7 nM
- Neutralization (IC50) (HA of B/Hong Kong/5/72 [11]): 0.4 nM
- Neutralization (IC50) [12]: 0.1 nM
- Neutralization (IC50) [13]: 0.5 nM
- Neutralization (IC50) (HA of B/Lee/40 [14]): 0.1 nM
- Neutralization (IC50) [15]: 0.9 nM
- Neutralization (IC50) [16]: 0.4 nM
- Neutralization (IC50) [17]: 0.1 nM
- Neutralization (IC50) [18]: 1.2 nM
- Neutralization (IC50) [19]: 0.2 nM
- Neutralization (IC50) [20]: 0.2 nM
- ADCC: NK cell killing of infected A549 cells (LDH release), IC50 [21]: 0.85 nM
- ADCC: NK cell killing of infected A549 cells (LDH release), IC50 [22]: 1.45 nM
- Hemagglutination Inhibition Titer [23]: 13 nM
- Hemagglutination Inhibition Titer [24]: 7 nM
- Hemagglutination Inhibition Titer [25]: 16 nM
- Hemagglutination Inhibition Titer [26]: 6 nM
- Hemagglutination Inhibition Titer [27]: 16 nM
- Hemagglutination Inhibition Titer [28]: 10 nM
- Hemagglutination Inhibition Titer [29]: 16 nM
- Hemagglutination Inhibition Titer [30]: 20 nM
- Hemagglutination Inhibition Titer (HA of B/Hong Kong/5/72 [31]): 8 nM
- Hemagglutination Inhibition Titer [32]: 11 nM
- Hemagglutination Inhibition Titer [33]: 18 nM
- Hemagglutination Inhibition Titer [34]: 24 nM
- Hemagglutination Inhibition Titer (HA of B/Lee/40 [35]): 5 nM
- Hemagglutination Inhibition Titer [36]: 14 nM
- Hemagglutination Inhibition Titer [37]: 6 nM
- Hemagglutination Inhibition Titer [38]: 20 nM
- Hemagglutination Inhibition Titer [39]: 16 nM
- Neutralization (IC50) [40]: > 1000 nM
- Neutralization (IC50) [41]: 0.4 nM
- Neutralization (IC50) [42]: > 1000 nM
- Neutralization (IC50) [43]: > 1000 nM
- Neutralization (IC50) [44]: 0.2 nM
- Neutralization (IC50) [45]: 1 nM
- Neutralization (IC50) [46]: > 1000 nM
- Neutralization (IC50) [47]: > 1000 nM
- Neutralization (IC50) [48]: > 1000 nM
- Neutralization (IC50) [49]: 0.6 nM
- Neutralization (IC50) [50]: 0.4 nM
- Neutralization (IC50) [51]: > 1000 nM
- Neutralization (IC50) [52]: 1 nM

B2: FY1/39 BiS2 100/44 (bispecific antibody)
light: DIQMTQSPSSLSASVGDRVTITCRTSQSLSSYLHWYQQKPGKAPKLLIYAASSLQSGVPSRFSGSGSGTDFTLTISSLQPEDFATYYCQQSRTFGQGTKVEIKRTVAAPSVFIFPPSDEQLKSGTASVVCLLNNFYPREAKVQWKVDNALQSGNSQESVTEQDSKDSTYSLSSTLTLSKADYEKHKVYACEVTHQGLSSPVTKSFNRGEC
heavy: not shown
- Neutralization (IC50) [53]: 0.4 nM
- Neutralization (IC50) [40]: > 1000 nM
- Neutralization (IC50) [41]: 1.7 nM
- Neutralization (IC50) [42]: 61.3 nM
- Neutralization (IC50) [43]: > 1000 nM
- Neutralization (IC50) [44]: 2.1 nM
- Neutralization (IC50) [45]: 7 nM
- Neutralization (IC50) [46]: 10.2 nM
- Neutralization (IC50) [54]: 9.9 nM
- Neutralization (IC50) [47]: 18.7 nM
- Neutralization (IC50) [48]: 72.1 nM
- Neutralization (IC50) [49]: 2.8 nM
- Neutralization (IC50) [50]: 6.1 nM
- Neutralization (IC50) [51]: 17.7 nM
- Neutralization (IC50) [52]: 5.6 nM

B3: FY1/39 BiS3 100/44 (bispecific antibody)
light: B2 light
heavy: not shown
- Neutralization (IC50) [53]: 0.7 nM
- Neutralization (IC50) [40]: 149 nM
- Neutralization (IC50) [41]: 5.9 nM
- Neutralization (IC50) [42]: 20.2 nM
- Neutralization (IC50) [43]: 45.2 nM
- Neutralization (IC50) [44]: 12.3 nM
- Neutralization (IC50) [45]: 112 nM
- Neutralization (IC50) [46]: 5.8 nM
- Neutralization (IC50) [54]: 2.5 nM
- Neutralization (IC50) [47]: 9.9 nM
- Neutralization (IC50) [48]: 7.8 nM
- Neutralization (IC50) [49]: 8.1 nM
- Neutralization (IC50) [50]: 21.5 nM
- Neutralization (IC50) [51]: 10.6 nM
- Neutralization (IC50) [52]: 43.7 nM
